Assay: purified protein yield per well (BCA); higher = higher soluble expression
In short: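 Candidate enzymes were made in 2 mL autoinduction cultures of E. coli C41(DE3) with 100 µg/mL kanamycin, at 37 °C for 2 h and then 18 °C for 40 h, and purified with Ni-charged magnetic beads and SUMO protease cleavage. The Pierce Rapid Gold BCA kit gave purified protein yield per well. Values lower than 25 ug (0.1 mg/mL) are below the detection threshold.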

DEIGSAPTAATITGNGSFATASTSVSSPSGFRGGQVYYPSTAGTYPVIAVVPGYLSYWSSISWLGPRLASWGFVVVGIETNSIYDQPASRGSQLRAALTWAVNTSPTTVRSRVDANRQGVAGWSMGGGGSLEALKADTSGRIKAAVPMAPWNSDQSWPEVTESVAIVGGQSDSVAPVSSHSIPFYNSLAGPKSYVELAGASHFFPNSDNPSLSRMIVSWFKRWINNDTRFTTFTCGFTGSAISSFRTNAC [ESM178]
purified protein yield per well: 27.5 µg

DENPLERGPDPTESFIEQRRGNYDVAQRSINRMGSDGFRNGTIYYPTDSSDGQFGVIAISPGYTAGESSIAWLGARMASFGFVVVTINTTTRYDQPRQRSTQLLAALDHAMEDSVVGPMIDPERQAVMGHSMGGGGALQAAESRPEIDAVIPLTPWNLKRNWRNIDAATLIIGAERDTIASVRTHSIPFYESLTGADQRGYLELRGASHFAPNFSNTTIAKYSVAWMKRHLDDDERYEKFLTPGPTVGYSSGVSDYRLQ [DP097]
purified protein yield per well: < 25 µg

DEVGQAPTAANIVGDGSFATTSSAITGQSGFGGGTVYYPTTAGRYPVVAVAPGFLSDWNSLNWLGSRVASWGFVVVGVNTNSGFDFPPSRGDQLLAALNWAVGSAPVAVRDKVDGTRRGVAGWSMGGGGTLEALAKDTTGTVKAGVPLAPWHSDKTWEQVSEPVFLVGGQNDTVAAPSSHAIPFYNSLGGQKSYLELAGQAHFFPTTSNPTVSRAIVSWFKRFVSSDNRFTPFTCGYTGSAVSNFRSSAC [ESM100]
purified protein yield per well: < 25 µg

DGEYRVLTYTDFPDAPEFGDGTIYYPVGTPGPIGGVAIVPGFTEEQRAVAWLGPRLASHGYAVLIFDTNDRRDPAQVRADELMGAVRVLRAENSRRGSPLFGRIDASKMAIMGHSMGGGGALLAADAHSDQVSAVITFAPYEPTASFSEITVPTLIFGGSADPIAPVADHAWRHFNSIPAST [TEP123]
purified protein yield per well: < 25 µg

DGPYDVDWIYESDGLRNGPYYLGATLYYPINAPEPLASIVIVPGWGMPESTMQDWGPFFASWGIIAMTIGTNNPSTDWPEDRAEALLDAIETIKQENDRIDSPVNGRIDLNSFAVSGWSMGGGGAQLAAVMEPTLKAVIALCPWLDNWVLEPDDLNHSVPTLIFSGQYDVNAPPYLHANIHYNYTPSTTDKLLFEVEYGDHYVANGPNGGSGYVGDKALEWIN [TEP053]
purified protein yield per well: < 25 µg

DGPYDVDWIYESDGLRNGPYYLGATLYYPINTSESLASIVIVPGWGMPESSIQNWGPFFASWGIIAMTIGTNNPYDWPEERAEALLDAIETIKQENVRSDSPVYGMVDINSFAVCGYSMGGGGAQWAATIDSYLDAVVALNPALAIYDTINCTDPEFDYYCLVPEHLNHSTPVLIITGENEDANGTSATGYNHYEYTPNATDKMFFQVSNSGHEAAYGPYGANGEVGEKSMQWLKFHLFCLEFLNIIKLQRKLKMI [TEP020]
purified protein yield per well: < 25 µg

DGYERGPDPTPTRLLGNGSFSVSTTSVSSLVLGFGGGTIYYPTSTSEGTFGGVVLSPGFTATSGSYAGVARRVASHGFVVLVIDTNTIYDQPDSRGRQILDAVDYLTEDAPSAVASRLDESRIAVSGHSMGGGGTLYAADNRTSVIKTAVALQPWHTDKTWPGVDIPTMIIGAENDAIAPVSSHSIPFYASLSGAPEKAYGEVNNAGHLIANTNDDWQGRLFVSWLKRYLDEDLRYEAFLCPAPSSISLSDYRDTCPG [DP030]
purified protein yield per well: < 25 µg

DPTAFAVHGPDPTAQSVQAQRGPYATSRTTVSSGTGFNRGTIYYPTTTSEGTFSAVAVIPGFTESESTMSWYGTTLSSHGFVVFTLEAEGGLDFPDARADQLLAALDYLVNSSSVRDRVDRNRLGVMGHSMGGGGTLEAANERPSLRAAIPLAAWHNTKNFPQVQAATLVISAEGDSVASPASHSEPFYQGLRSAEKAYLELNNGNHFTTNSYTPTVTKYAVSWLKRFLDDDTRYSQFLCPPPPPDSNINEYRHTCPV [DP055]
purified protein yield per well: < 25 µg

DSPYERGPDPTERSIEATRGPFSVSTISVSDFSTPGFGAANITYPTSRSEGTFGVVAISPGYTAGESTIAWLRPRIASQGFVVISFDTNSRTDFPSSRGDQLLAALDYVIEDSSVRDRVDGSRQAVMGHSMGGGGSLEAASDRRSIEAVVGLTPWNSDKTWSEVDAASLMIGAENDSVAPARTHAIPFYNSLTGAEDRAYLELDGASHLAPTFSNTEIAKYSISWLKRFVDDDDRYDQFLCPAPSTGFGSPLSDSRVSCPLG [DP098]
purified protein yield per well: < 25 µg

DSQNPYERGPVPTLESITAESGPFAIGSVTVPAGSGQGFNSGTVYYPTDTSKGTFGAIAIMPGFLASQSDIAWYGPRLASHGFVVMTLNTSALWDFPADRSRQQLAALTYLTAQSTVKNRIDPGRLAVMGWSMGGGGSLQSAASTPSLKAAIPLAPWDLSNVSSRITVPTMIFGADGDTVASVDDFARPFYNGLANAPDKSLIVLKGTDHFTFAKPNTTIARYSVSWLKRFVDNDTRYDQFLCPTPNDPNTVVLQITCPL [DP028]
purified protein yield per well: < 25 µg

DSTSDQHGPDPTKASIEAERGPFDVARVTVPRAGASGFGGGTIYYPSSTEEGKFGAVAIAPGFTASQSSMAWFGPRLASQGFVVFTIDTVTTSDQPDMRGDELRAALRYLTGSSKVKDRIDADRLAVMGHSMGGGGTLEAAKDDPALRAAIPLTPWDLNKNFSRVKTPTMIIGGQSDTIAPVASHSEPFYRSLPDTASKAYLELRGASHFAPNMPNTTIAEYSISWLKRFVDDDRRYDQFLCPAPGASVQISQYLSTCPY [TEP166]
purified protein yield per well: < 25 µg

EENPYARGPAPTNASIEADRGSFQTATEKVPAGQGFGGGTIHYPTDTGQGTFGAIAIAPGFFETESAIAWYGPRLASQGFVVITFSTKSTWDTPDLRSDQLLAALRYVTDKSQAKDRVDPGRLAVMGHSMGGGGSLIAAQKAPTLKAAIPLTGWNPNTVFSDLKVPTFVVSAQNDFIAPDGSHSRPFYQSLPESLDKAYLLLAGAGHMAPTKPNVTIAKYSLSWLKRFVDEDTRYDQFLCPLPANDPKIAVYRGTCPLG [TEP064]
purified protein yield per well: < 25 µg

ENPHERGPDPTEESVTAPTGPFDTDTENVSSLVSGFGGGTIYYPTDDSEGTFGGVVVAPGYTASESSMSWYGERIASQGFVVFTIDTNTRYDQPNSRGRQMESALDYLVEDSDVDDMVDGDRLALMGHSMGGGGTLAAAEDRPELRAAIPLTPWHLSKDWSDVEVPTMIVGAENDSIASTRSHAVPLYESLDEDLDSTYLELRNATHFAPNISNTTIAKYSISWLKRFVDDDVRYEQFLCPAPDTGFGTDFSDYRDSCPHGGSV [DP041]
purified protein yield per well: < 25 µg

EPYASIVIVPGYGMIEASIQDWGPFFASWGIIAMTIGTNNPYDFPEERVEALLDAIETIKQENDRINSPIYEKVDLNSFAVSGWSMGGGGAQLAAVIEPTLKAVIALCPWLDNWVLEPDDLNHSVPTLIFSGQYDVNAPPYLHANIHYNYTPSTTDKLLFEVEYGDHYVANGPDGGSGYVGDRAHEWINNYLLGD [TEP055]
purified protein yield per well: < 25 µg

FDPPNGAVIMVPGFRGTPPVYDWWGPMLASVGVITMIIETNTPEDSLEARKNAFIAGVEFLSGENDNPASPIRDKLDTSNIAIMGHSLGGGASLRAAEELGSRIKAVIPLTPYCCELGQSFEGNLSGVSVPTLIIASAEDAIAPPAEHARMLYDSVNAATEKVYLEFATGNHMLPSNSGQDLETLGTYVYAFIKENFTDNPRYADFIFGDGEEQFSTYEISQ [TEP136]
purified protein yield per well: < 25 µg

FGAVAISPGFTAAWSSLSWLGPRLASHGFVVIGIETNSRLDQPASRGDQLLAALDWAVNQSPAASRIDRNRLAVAGHSMGGGGTLEAAKDRPSLKAAIPIAPWNLDKTWPEIRTPTLILGGENDLIAPVASHAEPFYNSIPASAEKAYLELDNESHFFPQFSNTIMAKYMISWLKRFVDNDTRYDQFLCP [TEP090]
purified protein yield per well: < 25 µg

FGGGTIYYPTSTADGTFGAVVISPGFTAYESSIAWLGPRLASQGFVVFTIDTNTTLDQPDSRGRQLLAALDYLTQRSSVRTRVDATRLGVMGHSMGGGGSLEAAKSRPSLKAAIPLTGWNTDKTWPELRTPTLVVGADGDSIAPVATHSEPFYESLPGSLDKAYLELRGASHFTP [TEP045]
purified protein yield per well: < 25 µg

FNPGSGGGSGGANTCETNCGFERGPDPTLSGLRSGTGPYSVSTVDVPYGSAGFGGGTIHYPTNTSGGKMGAIAVIPGFVSPESSIGWWGPALASQGFVVLTMGTQTPLDSPSARARQLTAGLDHLVEQSNSSSSAISGLVDPSRVAMVGWSMGGGGTLKNAAGDRLSAAIPLAPFDMDMSSYKNIETPTMILGCESDIIAAADLFAVPSYEHIPESTDKAYFEFAGQGHWCANGNNDNNELLSILGVSWMKRYLDKDTRYDQFLCGTNHSSNSAFSQVRDTCN [DP064]
purified protein yield per well: < 25 µg

FPAVVLAVSKQPHTDTRALTDEIKTALREIEPSLPAEITVNAELFQMKRFIDTGVWNVGEALAIGAVVVQPTGAGAQTGEFRKGPDPTEASVRASSGTFTTTTASVSSLVAGFGGGTIHYPTDTSQGTYGAIAFAPGFTASSASYSWIGPRIASQGFVVFLINTDSRYDFPASRATQLQNALNYLVNSSVAASRIDLNRLAVG [TEP030]
purified protein yield per well: < 25 µg

FRSRGATIFYPEEPSHPLASIVIVPGWSSSERSIRAWGPFLASHGMVTMTIGTNNPPRDFPEQRAAALLDAIATLRAENARDTSPIFEKLDLSRIAVGGWSMGGGGAQLAAVQDPALKAAIGLCPWHEAPDIFEHTVPLLIIGGEKDRRAPFNEHGLVHYCTTPPATPKLLFEVRDAGH [TEP100]
purified protein yield per well: < 25 µg

FSAPGPSAPCSNCTRGPAPTATALKASSGPFTTAKFSVSGFLKGFGDSTVYYPTNTTGKMGAIAVIPGYLSYENSIDWWGPRLASHGFVVMTMNTETIYDQPDSRASQLSEALDYLIAQSNSSSSPIYNKVDSTRLGAIGWSMGGGGSLKLSTQRSINAIIPQAPWYLGSSAFSGIKTPALILACSADTVAPVAQHASPFYNQIPNSTPKAFLEIYGGSHFCANSGYPNQSMLGMYGIAWMKRFIDFDSRYSQFLCGPNHESDLAISDYRQNCPY [ESM044]
purified protein yield per well: < 25 µg

FSFTPPPEPNPDPDPTPPCEVDCDFTRGPDPSSSYLEAASGPYSVNTINVSSSVSGFGGGTVYYPTGTSGLMGAISIAPGFFAAESSIGWWGPRLASHGFVVITIATNSIFDGTDSRATQLDRALDYVINQSNSGSSAISGMVDSNRVGAMGWSMGGGGSLILGSGTRLSAVIPLAPWESGSNNFDQMTAPTLIIACENDGTAPVASHASPFYNTIPGTTDKAFLEINGGGHSCANGGGVNG [ESM098]
purified protein yield per well: < 25 µg

FTASQSSIQWYGPLLAGEGFVVITIDTNTIFDQPDSRATQLLAALDYLTGSSDVRHIVDPNRLAVAGWSMGGGGSLEAAVRRPSLKAAIPLAGWHTTKTFNTAVPTLVVACENDAVAGNAQHSGPFYDGLPASTPKAYLEIAGGDHTCVGSYDINIATPVVAWAKRWVNGDTSASAQLCPPKPIGGPISDSKANCPY [ESM171]
purified protein yield per well: < 25 µg

FTPSPDPTPDPEPTPEPCQGDCDFTRGPDPSISYLEADNGPYTVRTIDVPSSAGSFNGGTIHYPSGTSGTMGAIAVASGFLAPEGDIIWWGPRLASHGFVVITISTPTFDGEDRRATQLSEALDYVIAQSNSNGSDISGMVDGSRLGAMGWSMGGGGTLQLASGTRLSAAIPLAPWNSGSNNFDQIETPTLIIACENDGTAAVGTHASPFYHSIPASTDKAFLEINGGGHSCANGGGTNGGLLGKYGVSWMKLFMDDDSRYSQFLCGPNHAANSAISEYRDTCNY [DP049]
purified protein yield per well: < 25 µg

— the supplement of paper PMC12455559
